Data reported in patent US7122360.

Columns and labels:
[1] = tested on: KKRNRTLSVA with the arginine at position n-5 changed to leucine
Crosstide = tested on: T1, Crosstide
T1 sequence: GRPRTSSFAEG

peptide KKRNRTLSVA = tested on: T2, peptide KKRNRTLSVA
T2 sequence: KKRNRTLSVA

[2] = tested on: T3, KKRNRTLSVA with the arginine at position n-3 changed to lysine
T3 sequence: KKRNKTLSVA

CREBtide = tested on: T4, CREBtide
T4 sequence: EILSRRPSYRK

[3] = tested on: GST-MAPKAP-K1a [GST: P08515]
Chain of GST-MAPKAP-K1a [GST: P08515] (P08515 whole entry, looked up): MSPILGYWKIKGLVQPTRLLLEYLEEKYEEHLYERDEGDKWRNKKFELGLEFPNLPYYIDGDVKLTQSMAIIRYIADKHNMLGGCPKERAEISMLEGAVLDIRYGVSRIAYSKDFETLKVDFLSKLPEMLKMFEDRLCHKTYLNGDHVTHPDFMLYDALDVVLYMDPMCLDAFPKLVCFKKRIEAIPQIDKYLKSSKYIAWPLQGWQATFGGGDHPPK

Chain of GST-MSK1 (chain, as listed by the source): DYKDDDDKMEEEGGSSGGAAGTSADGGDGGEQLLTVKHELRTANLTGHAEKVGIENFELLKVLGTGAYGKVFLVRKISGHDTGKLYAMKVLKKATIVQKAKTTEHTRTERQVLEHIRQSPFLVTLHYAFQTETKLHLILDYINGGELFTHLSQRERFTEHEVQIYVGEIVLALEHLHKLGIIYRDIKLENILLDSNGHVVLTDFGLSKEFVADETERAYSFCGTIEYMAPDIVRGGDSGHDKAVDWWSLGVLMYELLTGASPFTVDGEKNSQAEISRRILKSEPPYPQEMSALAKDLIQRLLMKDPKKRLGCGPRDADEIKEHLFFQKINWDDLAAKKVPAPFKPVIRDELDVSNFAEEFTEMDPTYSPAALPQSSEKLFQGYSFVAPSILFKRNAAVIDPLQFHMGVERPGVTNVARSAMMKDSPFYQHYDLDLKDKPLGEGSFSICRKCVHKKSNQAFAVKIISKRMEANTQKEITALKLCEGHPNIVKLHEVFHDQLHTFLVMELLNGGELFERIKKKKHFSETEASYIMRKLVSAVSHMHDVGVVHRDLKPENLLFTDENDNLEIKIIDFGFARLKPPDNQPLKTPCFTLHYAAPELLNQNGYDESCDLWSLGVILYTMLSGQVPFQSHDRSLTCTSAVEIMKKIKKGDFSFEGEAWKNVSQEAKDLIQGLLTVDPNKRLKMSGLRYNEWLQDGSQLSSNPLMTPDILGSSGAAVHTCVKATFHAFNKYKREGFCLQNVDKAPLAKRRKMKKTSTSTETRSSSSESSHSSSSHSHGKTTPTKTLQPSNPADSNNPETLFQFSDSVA
Chain of GST-CREB [GST: P08515] (P08515 whole entry, looked up): as the sequence (P08515 whole entry, looked up) above

GST-MAPKAP-K1a
Km relative to KKRNRTLSVA [1]: 5 fold
Km (Crosstide): 2 to 3 µM
Km (GST-CREB [GST: P08515]): the Km was too high to be measured
Km and Vmax (peptide KKRNRTLSVA): almost identical Km and Vmax values as for Crosstide
Km relative to KKRNRTLSVA [2]: increased the Km about 100-fold
Km relative to MSK1 (CREBtide): Km values that were at least 200-fold higher

GST-MAPKAP-K2
Km (GST-CREB [GST: P08515]): the Km was too high to be measured
phosphorylation of Ser98 relative to Ser133 of CREB (GST-CREB [GST: P08515]): 10-fold higher level than Ser133
phosphorylation of substrate in vitro (heat shock protein 27): much more active towards heat shock protein 27

activated GST-MAPK2/ERK2
activity towards Crosstide after incubation with MgATP and activated MAPK2/ERK2 [3]: enhanced over 100-fold
activity towards Crosstide after incubation with MgATP and activated MAPK2/ERK2 (GST-MSK1): enhanced over 100-fold

activated GST-SAPK1/JNK1γ
activation in vitro (activity towards Crosstide) [3]: did not activate
activation in vitro (activity towards Crosstide) (GST-MSK1): did not activate

activated GST-SAPK2a/p38a
activation in vitro (activity towards Crosstide) [3]: could not
activation in vitro (activity towards Crosstide) (GST-MSK1): could also be activated similarly

activated GST-SAPK2b/p38β
activation in vitro (activity towards Crosstide) [3]: could not
activation in vitro (activity towards Crosstide) (GST-MSK1): could also be activated similarly

activated GST-SAPK3/p38γ
activation in vitro (activity towards Crosstide) [3]: did not activate
activation in vitro (activity towards Crosstide) (GST-MSK1): did not activate

activated GST-SAPK4/p38δ
activation in vitro (activity towards Crosstide) [3]: did not activate
